From patent US20020110800 come the findings set out here.

The target in the data set is wild-type TrkA, baculovirus-expressed, activated (autophosphorylated) (UniProt P04629).

B1: SHP-2 (enzyme, UniProt Q06124 2-593, looked up, species assumed)
Tyrosine-protein phosphatase non-receptor type 11: TSRRWFHPNITGVEAENLLLTRGVDGSFLARPSKSNPGDFTLSVRRNGAVTHIKIQNTGDYYDLYGGEKFATLAELVQYYMEHHGQLKEKNGDVIELKYPLNCADPTSERWFHGHLSGKEAEKLLTEKGKHGSFLVRESQSHPGDFVLSVRTGDDKGESNDGKSKVTHVMIRCQELKYDVGGGERFDSLTDLVEHYKKNPMVETLGTVLQLKQPLNTTRINAAEIESRVRELSKLAETTDKVKQGFWEEFETLQQQECKLLYSRKEGQRQENKNKNRYKNILPFDHTRVVLHDGDPNEPVSDYINANIIMPEFETKCNNSKPKKSYIATQGCLQNTVNDFWRMVFQENSRVIVMTTKEVERGKSKCVKYWPDEYALKEYGVMRVRNVKESAAHDYTLRELKLSKVGQGNTERTVWQYHFRTWPDHGVPSDPGGVLDFLEEVHHKQESIMDAGPVVVHCSAGIGRTGTFIVIDILIDIIREKGVDCDIDVPKTIQMVRSQRSGMVQTEAQYRFIYMAVQHYIETLQRRIEEEQKSKRKGHEYTNIKYSLADQTSGDQSPLPPCTPTPPCAEMREDSARVYENVGLMQQQKSFR
Consider B1, for which the “dephosphorylation of 32P-autophosphorylated Trk in vitro” value is on record as “approximately 5-fold dephosphorylation”.
